Experimental data reported in the supplement of paper PMC7125110.
± gives the standard error. For some of these results: Fewer inactive variants are shown than the library holds.

B1: glmS ribozyme (parent)
chain: AUAAAAGCGCCAGAACUACAGAAAUGUAGUUGACGAGGAGGAGGUUUAUCGAAUUUUCGGCGGAUGCCUCCAAA

What was measured:
Settings in all cases: with glucosamine-6-phosphate
glucosamine-6-phosphate [1] = variants of: B1; test: kcat; higher = faster cleavage; RNA array
Procedure, shortened: (§1)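 Glucosamine-6-phosphate (40 μM to 10 mM) in HEPES/KCl/Mg(OAc)2 buffer was flowed over sequenced MiSeq chips, and tiles were imaged over ~14 h. Barcoded ribozyme variants there had been transcribed in situ by E. coli RNA polymerase and were tracked through a hybridised Cy3 probe at 37 °C. One- or two-exponential decay fits to per-tile medians, normalised to baseline and to non-cleaving reference variants, gave kobs. kcat and KM came from weighted Michaelis–Menten fits across concentrations.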

glucosamine-6-phosphate [2] = variants of: B1; test: KM; higher = weaker cofactor use; RNA array
Procedure, shortened: as §1

glucosamine-6-phosphate [3] = variants of: B1; test: self-cleavage kobs at 160 uM GlcN6P; higher = faster cleavage; RNA array
Procedure, shortened: as §1

glucosamine-6-phosphate [4] = variants of: B1; test: self-cleavage kobs at 640 uM GlcN6P; higher = faster cleavage; RNA array
Procedure, shortened: as §1

glucosamine-6-phosphate [5] = variants of: B1; test: self-cleavage kobs at 2500 uM GlcN6P; higher = faster cleavage; RNA array
Procedure, shortened: as §1

glucosamine-6-phosphate [6] = variants of: B1; test: self-cleavage kobs at 10000 uM GlcN6P; higher = faster cleavage; RNA array
Procedure, shortened: as §1

glucosamine-6-phosphate [7] = variants of: B1; test: self-cleavage kobs at 40 uM GlcN6P; higher = faster cleavage; RNA array
Procedure, shortened: as §1

Variant	kcat (glucosamine-6-phosphate [1]) [s⁻¹]	KM (glucosamine-6-phosphate [2]) [µM]	self-cleavage kobs at 160 uM GlcN6P (glucosamine-6-phosphate [3]) [s⁻¹]	self-cleavage kobs at 640 uM GlcN6P (glucosamine-6-phosphate [4]) [s⁻¹]	self-cleavage kobs at 2500 uM GlcN6P (glucosamine-6-phosphate [5]) [s⁻¹]	self-cleavage kobs at 10000 uM GlcN6P (glucosamine-6-phosphate [6]) [s⁻¹]	self-cleavage kobs at 40 uM GlcN6P (glucosamine-6-phosphate [7]) [s⁻¹]
AUAAAAGCGCCAGAACUACAGAAAUGUAGUUGACGAGGAGGAGGUUCAUCGAAUUUUCGGCGGAUGGCUCCAAA [U47C C67G]	0.000337 ± 4.8e-05	1740 ± 450	3.84e-05 ± 8.3e-06	8.28e-05 ± 9.1e-06	0.000239 ± 3.4e-05	0.000279 ± 3.1e-05	–
AUAAAAGCGCCAGAACUACAGAAAUGUAGUUGACGAGGAGGAGGUUCAUCGAAUUUUCGGCGGAUGCGUCCAAA [U47C C68G]	6.88e-05 ± 2.3e-06	573 ± 80	–	3.62e-05 ± 7.3e-06	5.33e-05 ± 1.1e-05	6.6e-05 ± 7.8e-06	–
AUAAAAGCGCCAGAACUACAGAAAUGUAGUUGACGAGGAGGAGGUUCAUCGAAUUUUCGGCGGAUUCCUCCAAA [U47C G66U]	2.83e-05 ± 1.3e-05	–	–	–	–	–	< 1e-05
AUAAAAGCGCCAGAACUACAGAAAUGUAGUUGACGAGGAGGAGGUUCAUCGAAUUUUCGGCGGAUACCUCCAAA [U47C G66A]	0.00207 ± 0.00059	1050 ± 470	0.00017 ± 6.1e-05	0.000815 ± 0.0002	0.00159 ± 0.00037	0.00183 ± 0.0004	0.000111 ± 2.1e-05
AUAAAAGCGCCAGAACUACAGAAAUGUAGUUGACGAGGAGGAGGUUCAUCGAAAUUUCGGCGGAUGCCUCCAAA [U47C U54A]	0.00447 ± 0.00014	1630 ± 77	0.00038 ± 7.2e-05	0.00127 ± 0.00023	0.00275 ± 0.00072	0.00384 ± 0.00049	0.000112 ± 1.8e-05
AUAAAAGCGCCAGAACUACAGAAAUGUAGUUGACGAGGAGGAGGUUCAUCGAAUGUUCGGCGGAUGCCUCCAAA [U47C U55G]	0.0038 ± 0.00044	1640 ± 260	0.000341 ± 4.2e-05	0.0011 ± 0.00014	0.00161 ± 0.00035	0.00347 ± 0.00028	9.2e-05 ± 7.2e-06
AUAAAAGCGCCAGAACUACAGAAAUGUAGUUGACGAGGAGGAGGUUGAUCGACUUUUCGGCGGAUGCCUCCAAA [U47G A53C]	0.00406 ± 0.001	2510 ± 860	0.000223 ± 3.9e-05	0.000873 ± 0.00013	0.00196 ± 0.00025	0.00439 ± 0.0019	0.000103 ± 3.4e-05
AUAAAAGCGCCAGAACUACAGAAAUGUAGUUGACGAGGAGGAGGUUCAUCGAAUUUCCGGCGGAUGCCUCCAAA [U47C U57C]	6.99e-05 ± 7.5e-06	–	–	–	5.62e-05 ± 1.1e-05	6.24e-05 ± 9.4e-06	–
AUAAAAGCGCCAGAACUACAGAAAUGUAGUUGACGAGGAGGAGGUUCAGCGAAUUUUCGGCGGAUGCCUCCAAA [U47C U49G]	0.000198 ± 1.4e-05	1240 ± 220	–	6.46e-05 ± 1.7e-05	0.000146 ± 3.2e-05	0.000169 ± 3.6e-05	–
AUAAAAGCGCCAGAACUACAGAAAUGUAGUUGACGAGGAGGAGGUUGAUCGAAUUUUCGGCGGUUGCCUCCAAA [U47G A64U]	2.76e-05 ± 3.5e-06	–	–	–	–	–	–
AUAAAAGCGCCAGAACUACAGAAAUGUAGUUGACGAGGAGGAGGUUGAUCGAAUUUUCGGCGGGUGCCUCCAAA [U47G A64G]	0.0089 ± 0.0018	1570 ± 460	0.000742 ± 0.00017	0.00203 ± 0.00049	0.00542 ± 0.0013	0.00828 ± 0.0015	0.000278 ± 4.5e-05
AUAAAAGCGCCAGAACUACAGAAAUGUAGUUGACGAGGAGGAGGUUCAUCGAAUUCUCGGCGGGUGCCUCCAAA [U47C U56C A64G]	6.84e-05 ± 1.6e-05	–	–	6.85e-05 ± 1.9e-05	5.93e-05 ± 1.5e-05	–	–
AUAAAAGCGCCAGAACUACAGAAAUGUAGUUGACGAGGAGGAGGUUGAUAGAAUUUUCGGCGGAUGUCUCCAAA [U47G C50A C67U]	4.13e-05 ± 1.8e-05	–	–	6.02e-05 ± 2.6e-05	7.44e-05 ± 3.1e-05	–	–
AUAAAAGCGCCAGAACUACAGAAAUGUAGUUGACGAGGAGGAGGUUCAUCGAAUUUUCGGCGAAUGCCUCCAAA [U47C G63A]	< 1e-05	–	–	< 1e-05	–	–	–
AUAAAAGCGCCAGAACUACAGAAAUGUAGUUGACGAGGAGGAGGUUGAUCGAAUUUUUGGCGGAUGCCUCCAAA [U47G C58U]	8.14e-05 ± 1.6e-05	–	–	–	3.07e-05 ± 1.2e-05	6.32e-05 ± 8.6e-06	–
AUAAAAGCGCCAGAACUACAGAAAUGUAGUUGACGAGGAGGAGGUUCAUGGAAUUUUCGGCGGAUGCCUCCAAA [U47C C50G]	< 1e-05	–	–	< 1e-05	–	–	–
AUAAAAGCGCCAGAACUACAGAAAUGUAGUUGACGAGGAGGAGGUUCAUCGGAUUUUCGGCGGAUGCCUCCAAA [U47C A52G]	0.000596 ± 8.2e-05	3550 ± 750	3.5e-05 ± 1.7e-05	9.21e-05 ± 1.5e-05	0.000226 ± 4.3e-05	0.000465 ± 8.9e-05	–
